# Assay results: patent publication US20130055470
# Target: ubiquitin
row,Protein,"E3 ubiquitin ligase activity (in vitro ubiquitination reaction, anti-Ub Western blot)"
1,OsTR1-1 protein (protein) MGDHVAVDVGGLMASRGAGEEETGALIGMVECRICQEEDLAKNLESPCACSGSLKYAHRECVQRWCNEKGDIICEICHVSYKPGYTAPPQVHHDETTIEISSGDWSISGNRLDLHDPRILAMAAAQHRLLEDEYDEYTATNNNAAAFCRSIFLILMALLLLRHTLTITSSDDEDDASAIFSLFLLRAAGFLLPCYIMAWAISIMQRQRQRQEEAMLLPTEVAIILHRNGRTMQFAVAPESPTTPHPEQGQ,"multiple bands occurred in the lane with the addition of E1, E2, ATP and Ub, while no band occurred in the control"
2,AtTR1 protein (protein) MADHLSLCTDRLITSESLDSEKDSDSSGESSYRPQGTDLASSSVNETEVPREYYAVADEEEPLLQSVECRICQEEDSTKNLEAPCACNGSLKYAHRKCVQRWCNEKGDITCEICHQPYQHGYTAPPPPPPDETIIHIGDDWENGVPLDLTDPRILAMAAAERHFLEADYDEYSENNSSGAAFCRSAALILMALLLLRDALNLTTNPDDEDDPTAFFSLFLLRAAGFLLPCYIMAWAIGILQRRRQRQEAAALAAAEVTFMIHGGGPQRRGLHFAVAPQPPISNVPTPV,"multiple bands occurred in the lane with the addition of E1, E2, ATP and Ub, while no band occurred in the control"
3,ZmTR1 protein (protein) MAGDDHVVVDVNGLAKSKDDGGSKKLSEDANGSAPAAASLSAAVDLVQEEEEEEGDGEEQPLIQAAECRICQEEDSVKNLEKPCACSGSLKYAHRACVQRWCNEKGDTTCEICHEEYKPGYTAPPRVQPDETTIDIDGDLVMDLRDPRILAVAAAQHRLLEAEYDGYASTDASGAAFCRSAALILMALLLLRHALSMSDNEGNDDDASTIFSLFLLRAAGFLLPCYIMAWIFSILHRRRQRQEEAALAAAEVAFILQSARGRALQFAIAPDSPATPQHEPVSQQQQ,"multiple bands occurred in the lane with the addition of E1, E2, ATP and Ub, while no band occurred in the control"
